US20150018233A1 (FRED HUTCHINSON CANCER RESEARCH CENTER, published 2015)

T1: M2 muscarinic acetylcholine receptor (M2AchR), rat (rat, UniProt P10980 1-466)
T1 sequence (looked up): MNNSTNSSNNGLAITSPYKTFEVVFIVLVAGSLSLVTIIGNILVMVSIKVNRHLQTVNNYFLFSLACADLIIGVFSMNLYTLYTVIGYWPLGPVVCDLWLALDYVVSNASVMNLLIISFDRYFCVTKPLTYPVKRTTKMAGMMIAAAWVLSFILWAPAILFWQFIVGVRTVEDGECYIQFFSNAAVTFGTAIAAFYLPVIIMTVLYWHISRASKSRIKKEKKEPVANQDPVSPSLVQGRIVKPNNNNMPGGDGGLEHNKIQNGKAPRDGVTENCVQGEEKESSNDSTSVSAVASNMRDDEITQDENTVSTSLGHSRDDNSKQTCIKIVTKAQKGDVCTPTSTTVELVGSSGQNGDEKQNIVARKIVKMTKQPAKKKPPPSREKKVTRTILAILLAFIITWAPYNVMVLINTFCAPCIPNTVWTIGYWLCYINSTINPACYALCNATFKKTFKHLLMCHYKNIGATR

B1: Gαs-Gαi-13 (SEQ ID NO: 5) (other)
chain: MGCLGNSKTEDQRNEEKAQREANKKIEKQLQKDKQVYRATHRLLLLGAGESGKSTIVKQMRILHVNGFNGEGGEEDVPDYASNSDGEKATKVQDIKNNLKEAIETIVAAMSNLVPPVELANPENQFRVDYILSVMNVPNFDFPPEFYEHAKALWEDEGVRACYERSNEYQLIDCAQYFLDKIDVIKQADYVPSDQDLLRCRVLTSGIFETKFQVDKVNFHMFDVGGQRDERRKWIQCFNDVTAIIFVVASSSYNMVIREDNQTNRLQEALNLFKSIWNNRWLRTISVILFLNKQDLLAEKVLAGKSKIEDYFPEFARYTTPEDATPEPGEDPRVTRAKYFIRDEFLRISTASGDGRHYCYPHFTCAVDTENIRRVFNDCRDVIIKNNLKDCGLF
B2: Gαs-Gαz-13 (SEQ ID NO: 6) (other)
chain: MGCLGNSKTEDQRNEEKAQREANKKIEKQLQKDKQVYRATHRLLLLGAGESGKSTIVKQMRILHVNGFNGEGGEEDVPDYASNSDGEKATKVQDIKNNLKEAIETIVAAMSNLVPPVELANPENQFRVDYILSVMNVPNFDFPPEFYEHAKALWEDEGVRACYERSNEYQLIDCAQYFLDKIDVIKQADYVPSDQDLLRCRVLTSGIFETKFQVDKVNFHMFDVGGQRDERRKWIQCFNDVTAIIFVVASSSYNMVIREDNQTNRLQEALNLFKSIWNNRWLRTISVILFLNKQDLLAEKVLAGKSKIEDYFPEFARYTTPEDATPEPGEDPRVTRAKYFIRDEFLRISTASGDGRHYCYPHFTCAVDTENIRRVFNDCRDVIIQNNLKYIGLC
B3: Gαs-Gα15-13 (SEQ ID NO: 7) (other)
chain: MGCLGNSKTEDQRNEEKAQREANKKIEKQLQKDKQVYRATHRLLLLGAGESGKSTIVKQMRILHVNGFNGEGGEEDVPDYASNSDGEKATKVQDIKNNLKEAIETIVAAMSNLVPPVELANPENQFRVDYILSVMNVPNFDFPPEFYEHAKALWEDEGVRACYERSNEYQLIDCAQYFLDKIDVIKQADYVPSDQDLLRCRVLTSGIFETKFQVDKVNFHMFDVGGQRDERRKWIQCFNDVTAIIFVVASSSYNMVIREDNQTNRLQEALNLFKSIWNNRWLRTISVILFLNKQDLLAEKVLAGKSKIEDYFPEFARYTTPEDATPEPGEDPRVTRAKYFIRDEFLRISTASGDGRHYCYPHFTCAVDTENIRRVFNDCRDSVLARYLDEINLL

What was measured:
[1] = target: sweet receptor heterodimer (T1 R2/T1 R3); assay: cell-based or functional assay
[2] = target: T1, M2 muscarinic acetylcholine receptor …; assay: cell-based or functional assay

Binder	increase in SEAP activity (5 mM saccharin) [1] [fold]	increase in SEAP activity in response to 10 uM acetylcholine (CRE-SEAP reporter, HEK-293) [2] [fold]	increase in SEAP activity, cells transiently expressing the chimera (10 uM acetylcholine) [2] [fold]	increase in SEAP activity in response to the 10 uM acetylcholine ligand [2] [fold]
B1	~2	10	~10	–
B2	–	–	–	~2
B3	–	–	–	~2
